{"source": "paper PMC7596997", "target": "S. cerevisiae AAC2, P18239", "sequence (P18239 whole entry, the tested form may be a part)": "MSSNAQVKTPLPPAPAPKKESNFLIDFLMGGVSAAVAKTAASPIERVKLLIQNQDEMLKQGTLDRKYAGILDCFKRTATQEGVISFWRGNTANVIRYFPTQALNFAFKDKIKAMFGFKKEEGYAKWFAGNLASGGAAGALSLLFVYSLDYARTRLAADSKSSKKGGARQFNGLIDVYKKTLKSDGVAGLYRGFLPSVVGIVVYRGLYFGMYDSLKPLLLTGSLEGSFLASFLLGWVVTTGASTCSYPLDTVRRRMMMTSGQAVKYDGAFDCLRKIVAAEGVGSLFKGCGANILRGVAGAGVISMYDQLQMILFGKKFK", "test": "binding of [35S]-labeled AAC2 to isolated mitochondria", "conditions": "chain shown with the change, AAC2 lysate preincubated with apyrase, n = 3, read off a plot"}
{"binder": "Tom70 in the outer membrane of isolated yeast mitochondria (wild type), P07213 C141A (protein) MKSFITRNKTAILATVAATGTAIGAYYYYNQLQQQQQRGKKNTINKDEKKDTKDSQKETEGAKKSTAPSNPPIYPVSSNGEPDFSNKANFTAEEKDKYALALKDKGNQFFRNKKYDDAIKYYNWALELKEDPVFYSNLSAAYVSVGDLKKVVEMSTKALELKPDYSKVLLRRASANEGLGKFADAMFDLSVLSLNGDFNDASIEPMLERNLNKQAMSKLKEKFGDIDTATATPTELSTQPAKERKDKQENLPSVTSMASFFGIFKPELTFANYDESNEADKELMNGLSNLYKRSPESYDKADESFTKAARLFEEQLDKNNEDEKLKEKLAISLEHTGIFKFLKNDPLGAHEDIKKAIELFPRVNSYIYMALIMADRNDSTEYYNYFDKALKLDSNNSSVYYHRGQMNFILQNYDQAGKDFDKAKELDPENIFPYIQLACLAYRENKFDDCETLFSEAKRKFPEAPEVPNFFAEILTDKNDFDKALKQYDLAIELENKLDGIYVGIAPLVGKATLLTRNPTVENFIEATNLLEKASKLDPRSEQAKIGLAQMKLQQEDIDEAITLFEESADLARTMEEKLQAITFAEAAKVQQRIRSDPVLAKKIQETLAKLREQGLM", "values": [{"measurement": "other: bound protein, % of control (same mitochondria without NEM, 12 min)", "setting": "mitochondria pretreated with 2 mM NEM, control = untreated Tom70C141A mitochondria at 12 min", "result": "95 % of control"}, {"measurement": "other: bound protein, % of control (same mitochondria without NEM, 12 min)", "setting": "no NEM, this point is the normalisation control (100%), not a comparison with wild type", "result": "100 % of control"}]}
